The nature of this data set: label from the status in PepcDB records.

Regarding “GNSKSRNDRTETVDKEVIKAPEFDADSAYQYIQVQADFGPRVPNTQAHKECGEYLAGQLEKFGAKVYNQYADLIAYDGTILKSRNIIGAYKPESKKRILLCAHWDSRPYADNDPDPKNHHTPILGVNDGASGVGVLLEIARQIQKEQPALGIDIVFFDSEDYGIPEFYDGKYKQDTWCLGSQYWARTPHVQNYNARYGILLDMVGGKDATFYYEGYSARTARSEMKKIWKKAHELGYGKYFVKEDGGETVDDHIYVNKLARIPCVDIINYDAGNPQSSFGSFWHTVNDTMENIDRNTLKAVGQTVMDVIYNEK”, the protein production entry is given as “not failed”. As to “GPVPTPPDNIQVQENFNISRIYGKWYNLAIGSTCPWLKKIMDRMTVSTLVLGEGATEAEISMTSTRWRKGVCEETSGAYEKTDTD”, the protein production result was “failed”. As to “GQRQPSEQELLFRQQALLLEQQRIHQLRNYQASMEAAGIPVSFGGHRPLSRAQSSPASATFPVSVQEPPTKPRFTTGLVYDTLMLKHQCTCGSSSSHPEHAGRIQSIWSRLQETGLRGKCECIRGRKATLEELQTVHSEAHTLLYGTNPLNRQKLDSKKLLGSLASVFVRLPCGGVGVDSDTIWNEVHSAGAARLAVGCVVELVFKVATGELKNGFAVVRPPGHHAEESTPMGFCYFNSVAVAAKLLQQRLSVSKILIVDWDVHHGNGTQQAFYSDPSVLYMSLHRYDDGNFFPGSGAPDEVGTGPGVGFNVNMAFTGGLDPPMGDAEYLAAFRTVVMPIASEFAPDVVLVSSGFDAVEGHPTPLGGYNLSARCFGYLTKQLMGLAGGRIVLALEGGHDLTAICDASEACVSALLGNELDPLPEKVLQQRPNANAVRSMEKVMEIHSKYWRCLQRTTSTAGRSLIEAQTCENEEAETVTAMASLSVGVKPA”, the protein production result was “failed”. The same measure for “GQRVLFGSGEAAQNLAAEISRLDAKNVMVVAGDFELPMARQVAADIDVKVWHSNVVMHVPIETAEEARSVAKENDIDVVVCVGGGSTTGLAKAIAMTTALPIIAVPTTYAGSEATNVWGLTEAARKTTGVDNKVLPVTVIYDSALTMSLP”: “not failed”; for “GQTCARPMCIPPSYADLGKAARDIFNKGFGFGLVKLDVKTKSCSGVEFSTSGSSNTDTGKVTGTLETKYKWCEYGLTFTEKWNTDNTLGTEIAIEDQICQGLKLTFDTTFSPNTGKKSGKIKSSYKRECINLGCDVDFDFAGPAIHGSAVFGYEGWLAGYQMTFDSAKSKLTRNNFAVGYRTGDFQLHTNVNDGTEFGGSIYQKVCEDLDTSVNLAWTSGTNCTRFGIAAKYQLDPTASISAKVNNSSLIGVGYTQTLRPGVKLTLSALVDGKSINAGGHKVGLALELEA”: “failed”; for “GSPLLAPAFEPSLGPPPEGAPPTIEAWFSFRSPYSWLFMPRIRHLAQAYGATLELRPILPMVMRGLAVPRIKTIYITLDCKREAERVGLPFGRIVDPVGAGAERALAVLHHAMALGLGEQFAELGLKAAFADGIALAEDEGLYGVARRAGLTDAQTAAALADDSWRQRAETNRAALLEAGLWGAPTFRITGHQAHWGQDRLYMLEEDLRAAMQGAAAPR”: “failed”.

Take “GSSGSSGDGTCTGAMPDGALDTAVCADEVGSEEDLYDDLHSSSHHYSHPGGGGEQLAINELISDGSVVCAEALWDHVTMDDQELGFKAGDVIEVMDATNREWWWGRVADGEGWFPASFVRLRVNQDEPADDDAPLAGNSGAEDGGAEAQSSKDQMRTNVINEILSTERDYIKHLRDICEGYVRQCRKRADMFSEEQLRTIFGNIEDIYRCQKAFVKALEQRFNRERPHLSELGACFLEHQADFQIYSEYCNNHPNACVELSRLTKLSKYVYFFEACRLLQKMIDISLDGFLLTPVQKICKYPLQLAELLKYTHPQHRDFKDVEAALHAMKNVAQLINERKRRLENIDKIAQWQSSIEDWEGEDLLVRSSELIYSGELTRVTQPQAKSQQRMFFLFDHQLIYCKKDLLRRDVLYYKGRLDMDGLEVVDLEDGKDRDLHVSIKNAFRLHRGATGDSHLLCTRKPEQKQRWLKAFAREREQVQLD”: the protein production entry is recorded as “not failed”. With “GSSGSSGDKKAYFYHSSFQILNVEYTEALNSPATHEYRTLSERIEAMITDEFRGSSLKSEFIRTHVVKLRKEGTGVVADVVMKFRSSKRNNRKVMKTRIQSVLRRLSSSGNLEIAPSNEITSLTDQDT”, the protein production entry is “not failed”.

“GSSGSSGMSNTTWGLQRDITPRLGARLVQEGNQLHYLADRASITGKFSDAECPKLDVVFPHFISQIESMLTTGELNPRHAQCVTLYHNGFTCEADTLGSCGYVYIAVYPTQR”: the protein production result is “not failed”. As to “GVPPSQGDLEYQMSTTARAKRVREAMCPGVSGEGQLALLATQVEGQATNLQRLAEPSQLLKSAIVHLINYQDDAELVTRALPELTKLLNDEDPVVVTKAAMIVNQLSKKEASRRALMGSPQLVAAVVRTMQNTSDLDTARCTTSILHNLSHHREGLLAIFKSGGIPALVRMLSSPVESVLFYAITTLHNLLLYQEGAKMACAGRRAQKMVPLLNKNNPKFLAITTDCLQLLAYGNQESKLIILANGGPQALVQIMRNYSYEKLLWTTSRVLKVLSVCPSNKPAIVEAGGMQALGKHLTSNSPRLVQNCLWTLRNLSDVATKQEGLESVLKILVNQLSVDDVNVLTCATGTLSNLTCNNSKNKTLVTQNSGVEALIHAILRAGDKDDITEPAVCALRHLTSRHPEAEMAQNSVRLNYGIPAIVKLLNQPNQWPLVKATIGLIRNLALCPANHAPLQEAAVIPRLVQLLVKAHQDAQRHVAAGTQQPYTDGVRMEEIVEGCTGALHILARDPMNRMEIFRLNTIPLFVQLLYSSVENIQRVAAGVLCEL”, the protein production entry is recorded as “failed”. The result for “GYRALSFPDPLDSQPVQAIAFYPSTGSEHLSIIHGYRVEASEDAPIAMGRFPLLLLSHGNTGTPLALHDLATSLARQGFVVVAVVHPGDNDRDHSRLGSLSNLYGRPLQISEAISTALLDPVLAPYLNARQ” reads “not failed”; that for “HAATAAEPPTAPTPPTQPAEGPGGADYRHASVHQWHFGEGAREYWVFTPEQPVPGNAPLVIFLHGWSVMQPDLYRAWIDHIVRRGMVVVYPRYQPDLKTPNAAFLDNAAGALGDALRRLQAGELGVRPRLNQVAYLGHSAGGLLAANLAAASERLK”, “failed”. The result for “HFLLPFAEIPEQFPASKAVLMEHFYRRMRKRFGYLMTADGKPEGGQWNFDADNRNKLKSPDLLQLPTPLCFDNPVASIKARIERHRIPSIGQVGESLLWPINRAQALSLLAHFCQICLPNFGRFQDAMTAQHPHRWSLYHSRLSFALNSKLLSPREVIEATISAYRAAQGQISLAQVEGFVRQILGWREYVRGMYWSN” reads “failed”; that for “HFPARVKVEPAVDTSRIKVFGPGIEGKDVFREATTDFTVDSRPLTQVGGDHIKAHIANPSGASTECFVTDNADGTYQVEYTPFEKGLHVVEVTYDDVPIPNSPFKVAVTEGCQPS”, “not failed”; that for “HFPINTLLLMRATTGVQLRLPERFGEFLDCLFRALWVDKRNLNDPATITQVLEQGGFDPQQILDLSNDEEVKAALKDKTEQALQKGVFGAPSMFVGDELFFGQDRLDFVREALNA”, “failed”. As to “HGTGKQTNALADYWTSEFVNSVRQGIPVPNNYTVINCDFDQYMWEEAAAGCLATQLNSFIQAKNIDDLILLTHSNGGNVVRWILSNPTWDSRYPAVINATSKVIALAPSSGGTPLADAVNQGNVFETTLGWLLGYGSNAVKQQQVGWMAHYNNTWLFGTAGRPRLGKPFEVVVGSDVDSAIWDSDSYCAGYQYQVALETTQNWLDSCSDGFLNCSSQKAAGTVWFTDKQKTRGQEPLSHQQSRRACFNLDTL”, the protein production result is reported as “failed”.

Regarding “HIDLFDLDVEEPNDRIFIKGEAEEWPAYRKVPEVRENCNACGVCKDVCQYSAIYVIDKAYPLPELCHSCGACIYLCPEKAMEEVDYQTGKIVRVKSDITLTYGEMRIGEASAVFLIKQVKELMGKNAIIDSPPGASCPMVESVSDADYVILVAEPTPFGLHDLKIAAEVVSDLGLKFGVVVNKHGLPFDGIERYCKEGGVEILGKIPFSKEIAEKYSRGELLHDMKDFFVQLYEG”, the protein production entry is “failed”. For the sequence “HLHLRVKLLDNTMEIFDIEPKCDGQVLLTQVWKRLNLVECDYFGMEFQNTQSYWIWLEPMKPIIRQIRRPKNVVLRLAVK”, the protein production result was “failed”. The result for “HPKLVSSTPAEGSEGAAPAKIELHFSENLVTQFSGAKLVMTAMPGMEHSPMAVKAAVSGGGDPKTMVITPASPLTAGTYKVDWRAVSSDTHPITGSVTFK” reads “not failed”; that for “HPLLAGIPFRQLARPLMQDLAYSVRGTVSIGLLDGPSVVYVETARSGDVGPHTPDIGMPIPVVRTAMGRAAASTLPEAEAERLDRQLEAADGAMWASHRDLYRDGLRQCAERQFCTCFGDYLPAIHAVAAPLFRQRDRSFAINCGIPAFRLQPGQLEDEIGPRVRALAESIRALGVDPE”, “failed”. The same measure for “HQPNIIPYHKGFYRAFSKLHTTTFKYQAQSPQDIIDSLDDHHHLFLFVSEGLLKGYLYLEIDSQQSIAEIKYFSSHVDYRLKGIAFELLAYALQYAFDNFDIRKVYFKIRNKNNKLIERFNGLGFHINYEYIKFKFESRNVKDQTIPE”: “failed”; for “HVETIKNTFLNPKSNKVLVVAHRGNWRSAPENSTAAIDSAIAMKVDIVEIDIQKTKDGQLILMHDNTLDRTTTGKGEIKNWTLADIKKLKLKDKDGKVTNYVVPTLEEALLTAKGKIMVNLDKAYDIFDDVYAILEKTETQNQVIMKGGQPIETVKREFGSYLDKVLYMPVIDLGNKEAEKIITDYLKELRPAAFEIIYSDPKNPLPPKIKQLLFKKSLIWYNTLWGSLAGNHDDNLALTDPEKSYGYLIEQLGARILQTDQPAYLLDYLRKKGWHN”: “not failed”; for “IAALSRDITPQQDGSVIVDASITIRHLNRMMGWSLPLIGPRTLSGLIIEHLGYIPPPDSCLVIDHYHIEILRVSDNMIRGVKMIKTN”: “failed”. The same measure for “IDIEAMLGSVFDAMEPELDFTGEARNMDEARGQVRSFRSLEVPRVLHASPRVLVQSLADGKSVRHVDRAHFTDDERVEIGKDLLRFMYHGYFVHRFFHADPHAGNVFAAPGGPATLIDWGMVGRLD”: “failed”; for “IDSGLSPSVLMASNSGRRSAPPLNLTGLPGTEKLNEKEKELCQVVRLVPGAYLEYKSALLNECHKQGGLRLAQARALIKIDVNKTRKIYDFLIREGYITKA”: “not failed”; for “IEDCWLAYATAGTLNEDKSNAILIPTWYSGTHQTWFQQYIGTDHALDPSKYFIISINQIGNGLSVSPANTADDSISMSKFPNVRIGDDVVAQDRLLRQEFGITELFAVVGGSMGAQQTYEWIVRFPDQVHRAAPIAGTAKNTPHDFIFTQTLNETVEADPGFNGGEYSSHEEVADGLRRQSHLWAAMGFSTEFWKQEAWRRLGLESKESVLADFLDPLFMSMDPNTLLNNAWKWQHGDVSRHTGGDLAAALGRVKAKTFVMPISEDMFFPVRDCAAEQALIPGSELRVIEDIAGHLGLFNVSENYIPQIDKNLKE”: “failed”. Take “IFIGNLDPEIDEKLLYDTFSAFGVILQTPKIMRDPDTGNSKGYAFINFASFDASDAAIEAMNGQYLCNRPITVSYAFKKDSKG”: the protein production entry is “not failed”. The same measure for “IFLDSNMSLDVVWHVYSNMMSPEIEQFSNSVPKSPIRELLELEPETAKFGKPEKLADGRRVRVTVDVFCKGTFRGIGRNYRIAKCTAAKCALRQLKKQGLIAKKD”: “failed”; for “IGNVQYYLGFNLYDSRTKITKYDNEVGLLGKDSDDNLIYRKGMELGEIWGYTTDRLYTTEDFDSQGKLKNNIPKVEGYNPNPGDILYVDFDGNGIINNGKNTSNEPGDTRIIGNDTRRYQYGIRGGATWKGISLSFILQGVGKRDLWLMNELFYPHYDAYSTLFDSQLNYWTPEHTNSYFPRLYEKAEGNTKANQKPQTRFLQNGAYLSIRNISLSYTFPIKLIKPLGITNLSVFFGGENLFTFDHLPKGIDAERVVTDNLGQRGFTYPYMRQFSFGINLSL”: “failed”.
